Columns and labels:
[1] = biological target: T1, lung homogenates (neutrophil elastase) (Mus musculus, UniProt Q3UP87); assay: Ex vivo reporter release from nanosensors mixed with infected and healthy lung homogenates; design: species or system CD-1 mice; conditions: 24 h post-inoculation with P. aeruginosa PAO1 (FIG. 3C)
T1 construct: from tissue; host or cells: lungs of CD-1 mice, healthy or infected with P. aeruginosa PAO1 (homogenates ex vivo, or lung in vivo)
T1 sequence (Q3UP87 27-265): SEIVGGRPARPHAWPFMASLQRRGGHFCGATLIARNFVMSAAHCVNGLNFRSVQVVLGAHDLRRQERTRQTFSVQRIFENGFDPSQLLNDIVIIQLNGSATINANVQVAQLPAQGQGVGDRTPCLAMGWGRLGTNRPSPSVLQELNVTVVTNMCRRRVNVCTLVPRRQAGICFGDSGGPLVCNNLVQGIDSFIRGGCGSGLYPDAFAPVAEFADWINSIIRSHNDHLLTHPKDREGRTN
Experimental: Ultimately, the goal was to administer nanosensors into the lungs of mouse models of bacterial pneumonia to test for measurable reporter levels in the breath. Prior to direct administration into animal infection models, nanosensors were mixed ex vivo with infected and healthy lung homogenates. Bacterial pneumonia was established in CD-1 mice by intratracheal injection of 1.5×10^6 cfu Pseudomonas aeruginosa strain PAO1 (FIG. 3A). At 24 h post-inoculation, the time at which mice were euthanized and lung homogenates were prepared, infected lung homogenates had ˜22-fold greater neutrophil elastase concentration than healthy lung homogenates (FIG. 3B and FIG. 7). […] When mixed with nanosensors, infected lung homogenates triggered 5-fold faster reporter release compared to healthy lung homogenates (FIG. 3C).

[2] = biological target: T2, neutrophil elastase (NE) (Mus musculus, UniProt Q3UP87); format: in vivo, mice
T2 construct: from tissue; host or cells: lungs of CD-1 mice, healthy or infected with P. aeruginosa PAO1 (homogenates ex vivo, or lung in vivo)
T2 sequence (Q3UP87 27-265): T1 sequence (Q3UP87 27-265)
Experimental: With confirmation that infected lungs trigger greater reporter release and at detectable levels, nanosensors were then tested in acute pneumonia mouse models. […] Infected-7 and Infected-12, which have high initial reporter levels, have nanosensors predominantly in the airway. […] Reporters released from the sensor in the airways are expected to be expired in the breath more rapidly than free reporters deeper in the lung as the tidal volume is only a fraction of the total volume of the lung. […] In fact, infected breath samples at 16 min (18 min post-injection) have 3-fold higher mean reporter levels than breath samples from healthy controls (p=0.0035) (FIG. 4E and FIG. 6, right).
Therefore, subsequent studies focused on nanosensors with pentafluoropropylamine or heptafluoropropylamine reporters. […] Breath signal was reduced by ˜70% due to inhibitor administration, confirming the role of NE in releasing reporters in vivo to generate breath signal (FIG. 12).

[3] = biological target: T2, neutrophil elastase (NE); assay: Mechanistic study: NE inhibitor given before nanosensor in infected mice, breath signal; format: in vivo; conditions: 5 mg/kg intratracheal, 15 min before nanosensor, infected mice (FIG. 12)

reduction of breath signal [3] [%] | Compound | reporter release rate, infected vs healthy lung homogenates [1] [fold] | breath signal, infected vs healthy mice ([2]; 10, 20 and 30 min after administration, low and high doses (FIGS. 10A-10B)) | dose dependence of breath signal ([2]; 10 vs 100 μM doses) | AUROC for identifying infected mice by breath signal ([2]; 10 min, low dose (10 μM), p=0.0062) | mean reporter levels in breath, infected vs healthy controls ([2]; 16 min timepoint (18 min post-injection), p=0.0035) [fold] | reporter levels in breath, infected vs healthy (2-way ANOVA) ([2]; 20 min breath collection, p<0.05) | duration of SNR >1.0 relative to unattached peptide substrate ([2]; FIG. 11B) [×] | reporter levels in breath, infected mice vs healthy controls after convergence ([2]; after first 14 min of breath collection (FIG. 4B)) [fold] | time to disease-distinguishing reporter signal in the breath ([2]; after inhalation) [min] | earliest time of perfect distinction between mice with and without bacterial pneumonia ([2]; after nanosensor inhalation) [min] | breath signal vs peptide substrate unattached to scaffold ([2]; infected mice (FIG. 11A)) | timepoint of maximum effect size of reporter levels ([2]; infected vs healthy (FIG. 4D)) [min] | detectability of reporter levels in breath ([2]; intratracheal instillation, 10 μM equivalent peptide dose)
 | nanosensor: NE peptide substrate Nle(O-Bzl)-Met(O)2-Oic-Abu with C-terminal PFC reporter, conjugated via CKKK-PEG4 linker to 40 kDa 8-arm PEG; pentafluoropropylamine reporter in vivo (CKKKXXXX; not fully specified; non-natural residues) | 5 | significantly higher | dose-dependent | 1.0 | 3 | significantly greater | ~3 | ~3 | ≤ 20 | ≥ 12 | higher breath signal than peptide substrates | 16 | detectable
~70 | CC(C)(C)C(=O)Oc1ccc(S(=O)(=O)Nc2ccccc2C(=O)NCC(=O)O)cc1 [sivelestat] |  |  |  |  |  |  |  |  |  |  |  |  | 
